Test results: patent publication CN117186235A (SHANGHAI HUAIYUE BIOLOGICAL TECH CO LTD, dated 2023)
Values belong to the binder of their own block, whether it stands above or below them.

Assays:
人4-1BB-hFc蛋白 = target: T1, 人4-1BB-hFc蛋白 (human, UniProt Q07011 24-186); assay: ELISA, plate coated with human 4-1BB-hFc at 1.0 μg/mL, HRP secondary antibody
T1 construct: extracellular domain; The coated protein of the ELISA is called 人4-1BB-hFc蛋白; also called h4-1BB蛋白; 4-1BB重组蛋白; not shown: human IgG Fc fragment (hFc) of the pCpC vector

[1] = target: T2, 人源EGFRvIII (CHO-K1细胞表面表达) (human, UniProt P00533 25-1210); assay: FACS on CHO-K1 cells expressing human EGFRvIII, FITC anti-human IgG Fc
T2 construct: whole, on cells; Stably expressed on CHO-K1 cells; It is a deletion variant of EGFR and not the wild type; also called hEGFRvIII; CHO-K1-hEGFRvIII

人4-1BB (CHO-K1细胞表面表达) = target: T3, 人4-1BB (CHO-K1细胞表面表达) (human, UniProt Q07011 24-255); assay: FACS on CHO-K1 cells expressing human 4-1BB, FITC anti-human IgG Fc
T3 construct: whole, on cells; Stably expressed on CHO-K1 cells for FACS; also called h4-1BB; CHO-K1-h4-1BB
T3 sequence (Q07011 24-255): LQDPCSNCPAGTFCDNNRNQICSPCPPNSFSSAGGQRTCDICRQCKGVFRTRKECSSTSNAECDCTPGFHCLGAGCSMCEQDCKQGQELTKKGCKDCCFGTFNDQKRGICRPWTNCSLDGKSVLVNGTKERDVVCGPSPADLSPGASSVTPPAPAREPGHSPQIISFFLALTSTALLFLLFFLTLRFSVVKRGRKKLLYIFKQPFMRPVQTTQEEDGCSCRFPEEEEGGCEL

binding result (人4-1BB-hFc蛋白): binds
B1: 抗4-1BB抗体PE0116全长抗体 (antibody, V domains shown)
VH: QVQLVESGGGVVQPGRSLRLSCAASGLTFSSYGMHWVRQAPGKGLEWVAVIWYDGSNKYYADSVKGRFTISRDNSKNTLYLQMNSLRAEDTAVYYCAREEVLWFGELSYNYYYGMDVWGQGTTVTVSS
VL: DIQMTQSPSSLSASVGDRVTITCRASQGISNYLAWYQQKPGKVPKLLIYAASTLQSGVPSRFSGSGSGTDFTLTISSLQPEDVATYYCQKYNSVPLTFGGGTKVEIK
notes: Fully human antibody from Harbour transgenic mice; the bispecific uses it as IgG4; also called HY0101; PE0016

binding result [1]: binds
binding result (人4-1BB (CHO-K1细胞表面表达)): binds
B2: 抗4-1BB/抗EGFRvIII双特异抗体HY1001007 (bispecific antibody, IgG4)
heavy (part 1 of 2): B1 VH
heavy (part 2 of 2): GGGGSGGGGSGGGGSEIVLTQSPATLSLSPGERATLSCRASSSVSSSYLHWYQQKPGQAPRLLIYSTSNLAAGIPARFSGSGSGTDFTLTISSLEPEDFAVYYCQQYSGYPLTFGGGTKVEIKGGGGSGGGGSGGGGSQVQLVQSGAEVKKPGASVKVSCKASGYTFTDYNMDWVRQAPGQGLEWMGDINPNNADTIYNQKFKGRVTMTRDTSTSTVYMELSSLRSEDTAVYYCARGDYDGYYPVYYAMDYWGQGTTVTVSS
light: B1 VL
notes: IgG-scFv format: PE0116 IgG4 with the 043-1 VL-VH scFv fused to the C-terminus of the heavy chain (PE0116VH-CH-043-1VLVH); also called CH-scFv(043-1VLVH)-IgG4(PE0116); not shown: human IgG4 heavy chain constant region (from the expression vector); human light chain constant region of the expression vector; kappa or lambda not
